From the NTF2 design screens of Basanta et al. (2020)

Experiment: protease stability score; higher = more stable; yeast display proteolysis, trypsin and chymotrypsin;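 also: relative to predicted unfolded state with 0 unfolded-like and 1 meaning tenfold more protease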

| Sequence | protease stability score |
| --- | --- |
| SEDEKEDHELSRHVIETLKTGDWELLSELADPHVRLKVNGKTYIGRELFTETVRRLLDRFKNMTLKIEDIKTVDGRLEIHIFLIVGDKFFELIIIATKVDGRWFEEEMHVHHS | 0.915 |
| SEDEKEMKQALEHWLELLTTGNEEENEKLADPDVRLNFNGKEFHGWKLYREFLSRIKNATIRIREVRVVNGKVTVISELRIGDKVFEVQIHLKKVNGKWYVEEEHIH | 1.61 |
| SEDEKENREWKRLLIEAHMTGDEHFLSRQLDPNVLVIVNGQEKVGREEAERELKEWLDKVKGLRIRRFDTESEEFVDGRLHSNLKLDGIINGRRTELDIHVISVKIDGQWQIRQIFFV | 1.44 |
| SEDEKERDMIAELFVRSLVTGDEELIKDLIDPNVKLDIGDKSRHGRENFTRQILHFGVDHVDVTEMHVQGEKVNLRGNWNINGVDLDVINYVTKVNGKWLLTRVEIK | 1.14 |
| SEDEKFARHVVKLWEDNYKTGNFEELLHMMDPHVKIKVNGRELHGWEELEKILTEFHERFRNQKLDIKLRDLKIQGNYVHADMELTIHYNGQEHREQVHLVVRKVNGRWEIEKITFD | 0.813 |
| SEDEKFLQIALHLMMHWINTGDEDFLREMADPHVRLHDGDKEHHGWKVIEHLFHYYGVDHITVKRYTIIGDKVKTDGELRVGDKRFRILYETVKIDGRWHVHKIEIR | 1.43 |
| SEDEKFWEDISKIVLDLLRTGDWELSERYADPNVKVHLVIDGQELDLHGREHVVNLVRKLGADHVETEDHKFHYQGNKIRINIHGHLNINGKVQHVEFTEIWVKVDGRWYSQHHEIVFR | 1.55 |
| SEDEKHAHEFLEQFIRDWVTGNEESFELMLDPDMRLNINGRDFHGREEAVRHFSHRFKQLGVKHIELKEVDIDVFDGKVHSTYDGVERFNGQELRVRIEVEVLKINGQWYLHRVVVKIE | 2.27 |
| SEDEKHFREALEELHRALETGDWKRLDELLDPNTRLHINGVDLIGREMVSRFYRELVEHLGINHIELRVHHIRIIGDKVEMDSELIIDVGDKHIRIDQKLDAKKVDGRWISHVESHR | 2.05 |
| SEDEKHSEHAIHLIEHSMHTGDEKTLRDNIDPHVRVHINGRDVIGRELWMEILRRDLEELGVERVDFKTHHVEVFNGRMNIDGILTQGDKRVKVQIHYTKINGRWILEELIIR | 0.841 |
| SEDEKIAEHLMHEISRSTQTGDEEMSRRLMDPNVRIDINGKQIHGWETWQKEVERVDHSHSRFQLRDVRSQGNYLDARGEFHLDLHINGRTVHIVYDVTFIILKIDGRWFLHSIKVR | 0.519 |
| SEDEKIAHKVHRLMFESLRTGDEEFLRRMLDPNARFVVNGQDLVGMEFLDHTLREMRVREIRWRSSDVEIQGDKIINHSKVHSRFDQGEKETHVEVHIIIIYTKIDGQWHVKSVIIEYK | 1.12 |
| SEDEKIAQRLLDLLLESFITGDEQMDRELLDPNVKMEVGDKELHGREEALEWFTRVAKRVDHMRFTLTHMDIIDGRIIIQGRVEQFFNGRKVTTRYNLLVLKIDGRWRIEEIRYH | 1.42 |
| SEDEKIARDVIKLVLHAMRTGDEELFLKLADPNVRILFDGKELHGREEVIRFRERIDHFDIKRFDLRDMKIINGVMHVDVEIDGVLEVDGVRERRIEKVRWVVLKVDGRWRTHSIEIV | 2.69 |
| SEDEKIASEIAEYVERAFRTGNEEEWERYADPHVRTDVNGQDLIGRRTLEEMFHRIDHLHDSRMEIHDVKLVNGRIISDVRLHLDSHYNGVRFEWEHEVRIQVDKINGRWRVKFIEIR | 0.428 |
| SEDEKIHREMSKIMLEDLFTGDWKSLRDLVDPNVRIIVDGREFHGREYYSRELIEELLKFKNARFDIEHVELRIYDGRLRTLIHMRVNIDGVEHWVIVEVDFTKIDGRWYVEEIRVEVR | 1.33 |
| SEDEKIMEEASRLFMHLFLTGDEETLMRLADPNTRIVFNGQDHHGREEWTKVLRDLGIKHSHIEHVNLRTQGDKVDLNVHVNVHIDGRTRRYLIIVHATKINGRWEIKEIQVHEH | 0.989 |
| SEDEKISEEALRRWVHHNRTGNEQDYVRMADPDTKIEIGDKEFHGREEFVKLARDYGFKHYHLKDNDVIGDKIRIDGIVEFNGQRWEMILYFVKYDGRWSIKSIHIK | 1.45 |
| SEDEKITKEATRIFLENLHTGDERTMDDNLDPNVLLIINGVELVGREFIVTWLKELRLKRQDIKSIDMRLINGVAHVFMDIHVEGNYNGRDRRSDEELRYIIRKIDGRWSIESVEIHIR | 1.22 |
| SEDEKKRDESLELILRAILTGDEDLLKTLADPHVMFDWNGKELHGMNVFIHWVRHMGVDHRNIESKDKRIQGDKVRLDMTSNEHAENHEHRYRVELIIKKIDGRWIIKEFIIR | 1.36 |
